Here are results for four molecules from patent US20200216534A1.

Read-outs that look alike come from different tables or passages of the source.

Assay in all cases: cell-based or functional assay
Experiment [1] deals with m19-humBBz CAR (mouse; human) (UniProt P01731).
The target of a further experiment is h19BBz CAR (human) (UniProt P01732).
Experiment [2] concerns the target m19-humBBz CAR (mouse; human) (UniProt P01731). This is another data set of the same source.

In experiment [1], TRAF1 DN (184-417aa) yielded an NF-κB signaling, GFP % in NF-κB/293/GFP-Luc reporter cells of 13.4% and an NF-κB signaling, GFP MFI in NF-κB/293/GFP-Luc reporter cells of 1690 MFI.
For the molecule TRAF2 (over-expressed, cerulean-tagged), in the experiment with h19BBz CAR (human), the NF-κB, fold against h19BBz alone turned out to be 7.7 fold.

B1: TRAF3 DN (382-568aa) (protein, UniProt Q13114 382-568, looked up, species assumed)
chain: ESQLSRHDQMLSVHDIRLADMDLRFQVLETASYNGVLIWKIRDYKRRKQEAVMGKTLSLYSQPFYTGYFGYKMCARVYLNGDGMGKGTHLSLFFVIMRGEYDALLPWPFKQKVTLMLMDQGSSRRHLGDAFKPDPNSSSFKKPTGEMNIASGCPVFVAQTVLENGTYIKDDTIFIKVIVDTSDLPDP
modifications: cerulean fluorescent protein tag
With B1, in experiment [2], the NF-κB signaling, GFP % in NF-κB/293/GFP-Luc reporter cells worked out at 30.8% and the NF-κB signaling, GFP MFI in NF-κB/293/GFP-Luc reporter cells came out at 6060 MFI.

B2: TRAF2 DN (87-501aa) (protein, UniProt Q12933 87-501, looked up, species assumed)
chain: SSSAFPDNAARREVESLPAVCPSDGCTWKGTLKEYESCHEGRCPLMLTECPACKGLVRLGEKERHLEHECPERSLSCRHCRAPCCGADVKAHHEVCPKFPLTCDGCGKKKIPREKFQDHVKTCGKCRVPCRFHAIGCLETVEGEKQQEHEVQWLREHLAMLLSSVLEAKPLLGDQSHAGSELLQRCESLEKKTATFENIVCVLNREVERVAMTAEACSRQHRLDQDKIEALSSKVQQLERSIGLKDLAMADLEQKVLEMEASTYDGVFIWKISDFARKRQEAVAGRIPAIFSPAFYTSRYGYKMCLRIYLNGDGTGRGTHLSLFFVVMKGPNDALLRWPFNQKVTLMLLDQNNREHVIDAFRPDVTSSSFQRPVNDMNIASGCPLFCPVSKMEAKNSYVRDDAIFIKAIVDLTGL
modifications: cerulean fluorescent protein tag
In experiment [2], B2 returned an NF-κB signaling, GFP MFI in NF-κB/293/GFP-Luc reporter cells of 14300 MFI and an NF-κB signaling, GFP+% in NF-κB/293/GFP-Luc reporter cells of 63.5%.
